# Data: publication doi:10.1101/2023.03.13.532366 (bioRxiv, 2023)
# T1: mIL-12Rβ2_(D1-D6)-Strep-II Tag (non pre-dimerized) (mouse, UniProt P97378 24-637)
# T1 sequence (looked up): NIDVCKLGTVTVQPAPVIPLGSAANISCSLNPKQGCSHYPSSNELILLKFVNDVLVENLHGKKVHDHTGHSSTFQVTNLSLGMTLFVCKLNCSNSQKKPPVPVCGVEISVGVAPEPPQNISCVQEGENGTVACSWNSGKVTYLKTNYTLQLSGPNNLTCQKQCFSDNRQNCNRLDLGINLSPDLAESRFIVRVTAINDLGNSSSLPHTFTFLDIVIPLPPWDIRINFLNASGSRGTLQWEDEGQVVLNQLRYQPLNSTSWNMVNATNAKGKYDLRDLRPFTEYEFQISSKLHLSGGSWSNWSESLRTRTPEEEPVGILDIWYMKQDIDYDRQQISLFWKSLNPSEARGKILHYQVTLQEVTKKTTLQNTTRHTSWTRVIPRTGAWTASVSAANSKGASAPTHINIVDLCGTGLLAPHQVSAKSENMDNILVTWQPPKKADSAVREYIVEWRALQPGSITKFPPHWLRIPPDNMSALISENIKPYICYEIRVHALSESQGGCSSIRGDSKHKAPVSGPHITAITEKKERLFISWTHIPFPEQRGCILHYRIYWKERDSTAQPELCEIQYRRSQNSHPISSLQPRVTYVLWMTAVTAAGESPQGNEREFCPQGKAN
# T2: hIL-12B (p40), subunit of hIL-23 in the cryo-EM complex (human, UniProt P29460 23-328)
# T2 sequence (looked up): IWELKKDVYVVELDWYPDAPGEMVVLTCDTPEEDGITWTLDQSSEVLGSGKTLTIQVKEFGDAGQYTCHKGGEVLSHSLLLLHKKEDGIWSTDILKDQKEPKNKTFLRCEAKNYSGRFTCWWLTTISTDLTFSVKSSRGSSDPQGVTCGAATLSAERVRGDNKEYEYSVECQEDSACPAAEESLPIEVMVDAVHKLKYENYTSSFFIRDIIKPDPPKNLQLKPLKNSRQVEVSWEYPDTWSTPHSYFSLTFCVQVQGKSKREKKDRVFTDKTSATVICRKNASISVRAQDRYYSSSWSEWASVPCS
# T3: mIL-12B (p40), untagged, of the crystallised mIL-12 (mouse, UniProt P43432 23-335)
# T3 sequence (looked up): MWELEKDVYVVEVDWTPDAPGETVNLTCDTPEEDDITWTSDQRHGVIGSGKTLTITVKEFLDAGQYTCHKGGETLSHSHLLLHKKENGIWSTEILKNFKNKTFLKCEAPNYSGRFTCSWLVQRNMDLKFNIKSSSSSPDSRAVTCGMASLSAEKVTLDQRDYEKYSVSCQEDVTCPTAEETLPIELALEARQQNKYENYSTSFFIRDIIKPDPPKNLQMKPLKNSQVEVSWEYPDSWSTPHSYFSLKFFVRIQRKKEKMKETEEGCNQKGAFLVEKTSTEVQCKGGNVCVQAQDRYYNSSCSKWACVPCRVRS
# T4: hIL-12B (p40) of the crystallised hIL-23 (hIL-23a:hIL-12b co-transfection) (human, UniProt P29460 23-328)
# T4 sequence (looked up): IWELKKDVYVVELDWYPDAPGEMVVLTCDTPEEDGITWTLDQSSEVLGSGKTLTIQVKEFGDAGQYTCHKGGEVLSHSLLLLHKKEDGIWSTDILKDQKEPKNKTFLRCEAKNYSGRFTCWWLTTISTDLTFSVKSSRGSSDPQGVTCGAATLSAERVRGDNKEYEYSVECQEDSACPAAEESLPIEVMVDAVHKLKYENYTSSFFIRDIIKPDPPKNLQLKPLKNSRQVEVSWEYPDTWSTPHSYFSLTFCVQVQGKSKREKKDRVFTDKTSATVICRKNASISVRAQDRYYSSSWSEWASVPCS
# B1: mIL-12B (p40), subunit of mIL-12 in the cryo-EM complexes (mIL-12b-Casp3-AviTag-His6, tags cleaved) (natural protein, mouse, UniProt P43432 23-335, looked up)
# chain: MWELEKDVYVVEVDWTPDAPGETVNLTCDTPEEDDITWTSDQRHGVIGSGKTLTITVKEFLDAGQYTCHKGGETLSHSHLLLHKKENGIWSTEILKNFKNKTFLKCEAPNYSGRFTCSWLVQRNMDLKFNIKSSSSSPDSRAVTCGMASLSAEKVTLDQRDYEKYSVSCQEDVTCPTAEETLPIELALEARQQNKYENYSTSFFIRDIIKPDPPKNLQMKPLKNSQVEVSWEYPDSWSTPHSYFSLKFFVRIQRKKEKMKETEEGCNQKGAFLVEKTSTEVQCKGGNVCVQAQDRYYNSSCSKWACVPCRVRS
# B2: mIL-12Rβ1_(D1-D5)-Strep-II Tag (non pre-dimerized) (receptor, mouse, UniProt Q60837 20-565, looked up)
# chain: QLGASGPGDGCCVEKTSFPEGASGSPLGPRNLSCYRVSKTDYECSWQYDGPEDNVSHVLWCCFVPPNHTHTGQERCRYFSSGPDRTVQFWEQDGIPVLSKVNFWVESRLGNRTMKSQKISQYLYNWTKTTPPLGHIKVSQSHRQLRMDWNVSEEAGAEVQFRRRMPTTNWTLGDCGPQVNSGSGVLGDIRGSMSESCLCPSENMAQEIQIRRRRRLSSGAPGGPWSDWSMPVCVPPEVLPQAKIKFLVEPLNQGGRRRLTMQGQSPQLAVPEGCRGRPGAQVKKHLVLVRMLSCRCQAQTSKTVPLGKKLNLSGATYDLNVLAKTRFGRSTIQKWHLPAQELTETRALNVSVGGNMTSMQWAAQAPGTTYCLEWQPWFQHRNHTHCTLIVPEEEDPAKMVTHSWSSKPTLEQEECYRITVFASKNPKNPMLWATVLSSYYFGGNASRAGTPRHVSVRNQTGDSVSVEWTASQLSTCPGVLTQYVVRCEAEDGAWESEWLVPPTKTQVTLDGLRSRVMYKVQVRADTARLPGAWSHPQRFSFEVQIS
# What was measured:
# [1] = molecular target: B2; test: cryo-EM structure
# [2] = molecular target: B1; test: cryo-EM structure
# [3] = molecular target: T1, mIL-12Rβ2_(D1-D6)-Strep-II Tag (non …); test: cryo-EM structure
# [4] = molecular target: T2, hIL-12B (p40), subunit of hIL-23 in the …; test: cryo-EM structure
# [5] = molecular target: hIL-23R-CaM (complete extracellular segment of human IL-23 receptor fused to calmodulin) (human, UniProt Q5VWK5 24-355; P0DP23 5-149); test: cryo-EM structure
# [6] = molecular target: T3, mIL-12B (p40), untagged, of the …; test: crystal structure
# [7] = molecular target: T4, hIL-12B (p40) of the crystallised …; test: crystal structure
# [8] = molecular target: hIL-12Rβ1_(D3-D5) (domains 3 to 5 of human IL-12 receptor β1) (human, UniProt P42701); test: crystal structure
binder,measurement,setting,value
B1,binding result,[1],binds
"mIL-12A (p35), untagged subunit of mIL-12 in the cryo-EM complexes (natural protein, mouse, UniProt P43431 23-215, looked up) RVIPVSGPARCLSQSRNLLKTTDDMVKTAREKLKHYSCTAEDIDHEDITRDQTSTLKTCLPLELHKNESCLATRETSSTTRGSCLPPQKTSLMMTLCLGSIYEDLKMYQTEFQAINAALQNHNHQQIILDKGMLVAIDELMQSLNHNGETLRQKPPVGEADPYRVKMKLCILLHAFSTRVVTINRVMGYLSSA",binding result,[2],binds
same,binding result,[3],binds
B2,binding result,[3],binds
"hIL-23A (p19), subunit of hIL-23 in the cryo-EM complex (natural protein, human, UniProt Q9NPF7 20-189, looked up) RAVPGGSSPAWTQCQQLSQKLCTLAWSAHPLVGHMDLREEGDEETTNDVPHIQCGDGCDPQGLRDNSQFCLQRIHQGLIFYEKLLGSDIFTGEPSLLPDSPVGQLHASLLGLSQLLQPEGHHWETQQIPSLSPSQPWQRLLLRFKILRSLQAFVAVAARVFAHGAATLSP",binding result,[4],binds
same,binding result,[5],binds
"mIL-12A (p35) of the crystallised mIL-12 (mIL-12a-AviTag-His6, digested with Caspase-3) (natural protein, mouse, UniProt P43431 23-215, looked up) RVIPVSGPARCLSQSRNLLKTTDDMVKTAREKLKHYSCTAEDIDHEDITRDQTSTLKTCLPLELHKNESCLATRETSSTTRGSCLPPQKTSLMMTLCLGSIYEDLKMYQTEFQAINAALQNHNHQQIILDKGMLVAIDELMQSLNHNGETLRQKPPVGEADPYRVKMKLCILLHAFSTRVVTINRVMGYLSSA",binding result,[6],binds
"hIL-23A (p19) of the crystallised hIL-23 (hIL-23a:hIL-12b co-transfection) (natural protein, human, UniProt Q9NPF7 20-189, looked up) RAVPGGSSPAWTQCQQLSQKLCTLAWSAHPLVGHMDLREEGDEETTNDVPHIQCGDGCDPQGLRDNSQFCLQRIHQGLIFYEKLLGSDIFTGEPSLLPDSPVGQLHASLLGLSQLLQPEGHHWETQQIPSLSPSQPWQRLLLRFKILRSLQAFVAVAARVFAHGAATLSP",binding result,[7],binds
"Fab4_(CrystalKappa) (Crystal Kappa form of Fab4) (Fab, V domains shown) VH: QVQLVESGGGVVQPGRSLRLSCAASGFTFTSYGMSWVRQAPGKGLEWVAGISYDASDTEYADSVKGRFTISRDNSKNTLYLQMNSLRAEDTAVYYCARSPDYIIDYGFDYWGRGTLVTVSS VL: AIQMTQSPSSLSASVGDRVTITCRASQGISSDLAWYQQKPGKAPKLLIYDASSLQSGVPSRFSGSGSGTDFTLTISSLQPEDFATYYCQQYWWYPFTFGQGTKVEIK",binding result,[8],binds
"murine IL-12 (mIL-12), heterodimer of mIL-12A (p35) and mIL-12B (p40), as in the cryo-EM receptor complexes (complex, mouse) chain 1: RVIPVSGPARCLSQSRNLLKTTDDMVKTAREKLKHYSCTAEDIDHEDITRDQTSTLKTCLPLELHKNESCLATRETSSTTRGSCLPPQKTSLMMTLCLGSIYEDLKMYQTEFQAINAALQNHNHQQIILDKGMLVAIDELMQSLNHNGETLRQKPPVGEADPYRVKMKLCILLHAFSTRVVTINRVMGYLSSA chain 2: MWELEKDVYVVEVDWTPDAPGETVNLTCDTPEEDDITWTSDQRHGVIGSGKTLTITVKEFLDAGQYTCHKGGETLSHSHLLLHKKENGIWSTEILKNFKNKTFLKCEAPNYSGRFTCSWLVQRNMDLKFNIKSSSSSPDSRAVTCGMASLSAEKVTLDQRDYEKYSVSCQEDVTCPTAEETLPIELALEARQQNKYENYSTSFFIRDIIKPDPPKNLQMKPLKNSQVEVSWEYPDSWSTPHSYFSLKFFVRIQRKKEKMKETEEGCNQKGAFLVEKTSTEVQCKGGNVCVQAQDRYYNSSCSKWACVPCRVRS",binding result,[1],binds
same,binding result,[3],binds
